Reference: the supplement of paper PMC10724198
± gives the standard deviation of the averaged measurements.

test system: Saccharomyces cerevisiae; assay: protein stability index of tFT-peptide fusion (C-terminal peptide) (PSI (0-1 scale)); higher = more stable (slower turnover); details: genetic background: wild type; temperature: 30 C
Procedure: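 Multiplexed protein stability (MPS) profiling in S. cerevisiae. Random 12-aa peptides (tFT-X12 library) are fused to the C-terminus of a sfGFP-mCherry tandem fluorescent timer, after mCherry and a GGGS linker. Cells are FACS-sorted into 8 mCherry/sfGFP bins and deep-sequenced. The protein stability index (PSI) is the read-weighted bin average, scaled from 0 (unstable) to 1 (stable). Only peptides with >10 reads are reported; cells were grown at 30 °C in SC-His with glucose.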
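Also: PSI is a weighted mean of sequencing reads over stability bins, variants kept only with over 10 reads, mCherry proximal and sfGFP distal, peptide attached via GGGS linker.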

First: LCFPHDFFSSSS
Second: LCGALWGAARGE
The protein stability index of the first is higher: 0.7768 ± 0.0058 for the first, 0.728 ± 0.019 for the second.

LCKGCEGGVMQR and LCPSLSSPTSAT are within error of each other in protein stability index: 0.666 ± 0.037 for the first, 0.659 ± 0.029 for the second.

First: LCPWRYAVLFSP
Second: LCRFPSSPQLPS
The protein stability index of the first is lower: 0.645 ± 0.068 for the first, 0.7236 ± 0.0071 for the second.

LCRLTNVCGAVV and LCSPKPASAPGH are within error of each other in protein stability index: 0.6543 ± 0.004 for the first, 0.668 ± 0.032 for the second.

LCVLFVSKPTPE and LDLVFYMFSPFL are within error of each other in protein stability index: 0.67 ± 0.019 for the first, 0.618 ± 0.061 for the second.

LDTRTLGVLTVG and LDVGSFLALRMR are within error of each other in protein stability index: 0.633 ± 0.025 for the first, 0.627 ± 0.036 for the second.

LEPSDMDTDSDG and LESCFFGSFFFL are within error of each other in protein stability index: 0.706 ± 0.018 for the first, 0.778 ± 0.091 for the second.

LESGSARLFLWI and LEVVVVGGVGGG are within error of each other in protein stability index: 0.746 ± 0.16 for the first, 0.687 ± 0.085 for the second.

Compared with LFAHPPSPPSAP, LFCHHCASLVDL is higher in protein stability index: 0.654 ± 0.016 for the first, 0.722 ± 0.002 for the second.

LFDRFVAGVRYG and LFFFPRRLSPPT are within error of each other in protein stability index: 0.656 ± 0.021 for the first, 0.722 ± 0.05 for the second.

Compared with LFFRLRSLLSRS, LFGIGFFSFICS is lower in protein stability index: 0.623 ± 0.0063 for the first, 0.537 ± 0.074 for the second.

LFGTGVRCGVCS and LFHHLAPRPAPP are within error of each other in protein stability index: 0.637 ± 0.092 for the first, 0.698 ± 0.051 for the second.

LFIGLAAVHAHY and LFLFAPRPPPPP are within error of each other in protein stability index: 0.687 ± 0.11 for the first, 0.717 ± 0.03 for the second.

Going from LFLSIRRFRCRL to LFPALFWPTSTL, the protein stability index rises from 0.58 ± 0.057 to 0.743 ± 0.032.

LFQKRAIGGAWL and LFRFFPWPPPPA are within error of each other in protein stability index: 0.742 ± 0.039 for the first, 0.682 ± 0.034 for the second.

LFRPTPPSFAPP and LFSARRKSPTSL are within error of each other in protein stability index: 0.683 ± 0.048 for the first, 0.708 ± 0.058 for the second.

LFSGPYRYKAYM and LFSSLLLPNALR are within error of each other in protein stability index: 0.7273 ± 0.0061 for the first, 0.69 ± 0.038 for the second.

Compared with LFVHTPCPFEVR, LFWFVSLWGGFA is lower in protein stability index: 0.673 ± 0.023 for the first, 0.529 ± 0.073 for the second.

Compared with LFYYLFRYFFPP, LGAWAGGGASSG is higher in protein stability index: 0.548 ± 0.0094 for the first, 0.704 ± 0.03 for the second.

LGEDRVKYQKLW and LGFGCVYCGEAW are within error of each other in protein stability index: 0.7234 ± 0.007 for the first, 0.689 ± 0.033 for the second.

LGFLSSLLCRSL and LGGASNGCSTLK are within error of each other in protein stability index: 0.779 ± 0.068 for the first, 0.718 ± 0.091 for the second.

LGGAVLSRFGAR and LGGGGGVECRVG are within error of each other in protein stability index: 0.738 ± 0.047 for the first, 0.672 ± 0.058 for the second.

LGGGGRGFAGRK and LGGGSGCVEGGL are within error of each other in protein stability index: 0.618 ± 0.029 for the first, 0.713 ± 0.082 for the second.

LGGRNNRQMSSG and LGGVGSSGDVVA are within error of each other in protein stability index: 0.678 ± 0.11 for the first, 0.648 ± 0.017 for the second.

First: LGGWWVWSWGRG
Second: LGHVHLIGDIVC
The protein stability index of the first is lower: 0.66 ± 0.023 for the first, 0.7042 ± 0.0039 for the second.

LGKAVSDMDETH and LGLMSSCFSMWC are within error of each other in protein stability index: 0.687 ± 0.026 for the first, 0.657 ± 0.15 for the second.

Compared with LGLSLPCRGFTL, LGMMIPQILDFV is lower in protein stability index: 0.682 ± 0.0073 for the first, 0.586 ± 0.014 for the second.

Compared with LGNFENDEGSQK, LGRCSTLLYCGP is lower in protein stability index: 0.735 ± 0.026 for the first, 0.669 ± 0.03 for the second.

First: LGRGRGGPLSGG
Second: LGRPCGGVAGEQ
The protein stability index of the first is higher: 0.7014 ± 0.003 for the first, 0.637 ± 0.014 for the second.

Going from LGRSGCRGGYVG to LGRSRYADVQFC, the protein stability index rises from 0.622 ± 0.014 to 0.77 ± 0.021.

LGSGGLMEPWCG and LGSGSTQGWAGG are within error of each other in protein stability index: 0.644 ± 0.11 for the first, 0.667 ± 0.035 for the second.

LGVGGGGRGVRG and LGVGGRWVAPGA are within error of each other in protein stability index: 0.728 ± 0.12 for the first, 0.678 ± 0.094 for the second.

LGVLGGWRRFGV and LGVLRALLGEGM are within error of each other in protein stability index: 0.72 ± 0.031 for the first, 0.688 ± 0.033 for the second.

First: LGVWGGGRGVRG
Second: LHAHTAPAHPKT
The protein stability index of the first is higher: 0.7206 ± 0.0051 for the first, 0.689 ± 0.0087 for the second.

First: LHGDLLFSVYVL
Second: LHHPPSTHRGPD
The protein stability index of the first is lower: 0.597 ± 0.083 for the first, 0.711 ± 0.004 for the second.

LHLRPPHPPLPS and LHLVRLEGEECL are within error of each other in protein stability index: 0.717 ± 0.015 for the first, 0.677 ± 0.027 for the second.

LHLYPSLLLPGL and LHPLHSSSPRVS are within error of each other in protein stability index: 0.742 ± 0.074 for the first, 0.704 ± 0.026 for the second.

LHPPHPPPSPPP and LHPPLTLTFYLS are within error of each other in protein stability index: 0.626 ± 0.1 for the first, 0.555 ± 0.0089 for the second.

First: LHPPRPTPKHPA
Second: LHPSPPSPLPPP
The protein stability index of the first is lower: 0.608 ± 0.0093 for the first, 0.723 ± 0.028 for the second.

LHPSPQRHKTLQ and LHRLRLASRAAL are within error of each other in protein stability index: 0.743 ± 0.017 for the first, 0.719 ± 0.068 for the second.

LHSPATAPHRPP gave a protein stability index of 0.67 ± 0.022.
